This passage reports amyloid nucleation score results from the supplement of paper PMC12042874.

± gives the uncertainty stated by the source.

This data set can be described thus: amyloid nucleation score (Sup35N fusion, yeast selection) (log enrichment); library NNK2; higher = more nucleation; inactive = no reads after selection. The method, boiled down:
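The nucleation score is a DiMSum log enrichment of output over input reads, centred on the mode score of non-aggregating sequences. Sequences under 100 input reads were excluded, and reads came from Illumina sequencing of plasmid inserts. Psi-negative yeast expressing Sup35N fused to peptides of 20 random codons were induced with 100 μM copper sulfate for 24 hours and grown 7 days at 30°C on medium lacking adenine and uracil. Random libraries had three technical output replicates.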
With LFCTFKLRAMTFTSNKSRVV, the amyloid nucleation score stood at 1.04 ± 0.43.

As to LFDSCSDSRMFNWMGPSNGQ, the amyloid nucleation score entry was “inactive”.

For the substance LFDVMIQTRCLYHWNSPHNL, the amyloid nucleation score came to 5.14 ± 0.065.

With LFEFSFITPYGV, the amyloid nucleation score is -0.531 ± 0.44.

With LFEMC, the amyloid nucleation score was 0.443 ± 0.26.

Turning to LFFFSGRWKVNGGIVDGCGV, the amyloid nucleation score is 0.166 ± 0.45.

With LFGTNFYVQDNIVKGRVLIM, the amyloid nucleation score result is “inactive”.

As to LFIDDVPVDSITYGIWARGC, the amyloid nucleation score is -1.5 ± 1.1.

Take LFIYLGDQSSNKVKPTHFRE: the amyloid nucleation score is -0.497 ± 0.33.

LFKFDVPTNIKCYIRSSCSI: the amyloid nucleation score result was “inactive”.

With LFKPLRNR, the amyloid nucleation score is -0.918 ± 0.33.

The substance LFLSLTTQNWFNYNLPI displayed an amyloid nucleation score of 7.32 ± 0.026.

Consider LFRRGKILACIYA, for which the amyloid nucleation score worked out at 0.016 ± 1.1.

With LFSMSL, the amyloid nucleation score was -1.27 ± 1.

LFSYWSVYSGLREVGPYCMV had an amyloid nucleation score of 0.79 ± 0.21.

LFTKRRW returned an amyloid nucleation score of 0.87 ± 0.46.

Take LFVVTVTIMCYLSKEYVGLP: the amyloid nucleation score was 0.039 ± 0.51.

LFWGWITFTKECTNWGATIG yielded an amyloid nucleation score of 0.895 ± 0.58.

With LFWHLHSNFIADVLLNVRLC, the amyloid nucleation score is 1.13 ± 0.53.

LFYKVFAYLFFVDVVCASKG gave an amyloid nucleation score of 4.97 ± 0.062.

Take LGCMNDNMSNYYCGHR: the amyloid nucleation score is -1.31 ± 0.55.

In the case of LGDLFYYFTVRK, the amyloid nucleation score was 0.389 ± 0.66.

LGFIHSTG: the amyloid nucleation score result was “inactive”.

For the substance LGFLAEELCMSMMGIVDVPE, the amyloid nucleation score entry was “inactive”.

The substance LGHASSFCAYCRFDSM had an amyloid nucleation score of 4.16 ± 0.068.

Regarding LGICPFNGSLRS, the amyloid nucleation score was -1.65 ± 1.1.

For LGIVDRTFQSMPYVGWMMV, the amyloid nucleation score turned out to be 0.563 ± 0.36.

As for LGLCLHLISSFRHRYAVLSR, the amyloid nucleation score was -0.19 ± 0.3.

LGNRVRMSWNW: the amyloid nucleation score came to 0.807 ± 0.44.

On to LGPCSVIGQMVMYDRYGLLD, for which the amyloid nucleation score is -0.313 ± 0.76.

On to LGRLIWTRVSYCMSQINRVR, for which the amyloid nucleation score turned out to be 2.23 ± 0.061.

As for LGSVLLRFRH, the amyloid nucleation score was -0.469 ± 0.23.

LGSYVACPRDTKDYQNNSMC: the amyloid nucleation score is -0.877 ± 0.48.

Consider LGTLGYTDAILWNYMSHCKG, for which the amyloid nucleation score entry was “inactive”.

For LGTSRGNDVENRAYSRWVKV, the amyloid nucleation score is 0.524 ± 0.81.

Take LGVFWIDWPLLLGFRSRTGV: the amyloid nucleation score is -0.393 ± 1.1.

Turning to LHCRSCGF, the amyloid nucleation score was -0.193 ± 0.43.

Take LHIESRLRRSSQEKSN: the amyloid nucleation score is 0.012 ± 0.45.

Turning to LHILRA, the amyloid nucleation score came to 0.605 ± 0.47.

With LHLFIVGRKWSGDESAFLYA, the amyloid nucleation score was found to be 0.154 ± 0.5.

LHSNCRV came in with an amyloid nucleation score of 0.343 ± 0.8.

In turn, LHSVMMLGGRIRPHPQVHSL showed an amyloid nucleation score of 0.471 ± 0.26.

In turn, LHSYWH had an amyloid nucleation score of 0.121 ± 0.2.

In the case of LHVMYQTAMRAFAWNVTDLG, the amyloid nucleation score was -0.032 ± 0.8.

The substance LIAFMRF came in with an amyloid nucleation score of 5.688 ± 0.042.

LIEFAFVQFCNIVIEP: the amyloid nucleation score stood at 7.102 ± 0.031.

With LIEVQGSFYIVSALIGYRCG, the amyloid nucleation score was 0.414 ± 0.21.

Substance LIGIARSRVYRVKECFVHGL yielded an amyloid nucleation score of 0.519 ± 0.43.

LIHLNNAMIEHCMFEVRSFG: the amyloid nucleation score is -0.016 ± 0.26.

Take LIIFTGYRCSLPFMSFF: the amyloid nucleation score was -0.945 ± 1.

In the case of LILRSVSNYAITIMFAFDTR, the amyloid nucleation score came to 4.39 ± 0.096.

The substance LIQRVRGCWTSYVYGGVWSR returned an amyloid nucleation score of 1.66 ± 0.34.

Substance LIQVAFQLYATVQVTVKTDV showed an amyloid nucleation score of 2.09 ± 0.26.

Turning to LIRFYEIFSW, the amyloid nucleation score was -0.237 ± 1.

Consider LIRKFRVVVMFSYVQVLPVI, for which the amyloid nucleation score was determined as 0.173 ± 1.1.

The substance LISATPQSSFHHFEMNSGSH had an amyloid nucleation score of 0.275 ± 0.23.

LISKSGSFMNMLGTGDRAR had an amyloid nucleation score of 0.005 ± 1.

For the substance LIVSAALRYNKDLLWIS, the amyloid nucleation score is -0.004 ± 0.39.

Take LIVSKWVHLWGYNALDNKEK: the amyloid nucleation score is -1.65 ± 0.62.

Turning to LIYNVDSVMNFVRVDNYDSP, the amyloid nucleation score stood at 6.88 ± 0.087.

Regarding LKAQRFWTNNLSLEANSHRK, the amyloid nucleation score was -0.573 ± 1.1.

For LKCVHCYIRHLNFYFILPLC, the amyloid nucleation score result is “inactive”.

For the substance LKEDF, the amyloid nucleation score entry is “inactive”.

Turning to LKGGIFRV, the amyloid nucleation score result was “inactive”.

Substance LKMCYFLRNKPTQMHVSGVY yielded an amyloid nucleation score of 0.04 ± 0.5.

Turning to LKMSHIYCSIIITAYLNWLV, the amyloid nucleation score entry is “inactive”.

LKNFNLRIMTTPLNCNCNTY: the amyloid nucleation score was -0.434 ± 0.29.

Turning to LKVGVIDNI, the amyloid nucleation score is -1.2 ± 0.61.

Regarding LKWVTFEST, the amyloid nucleation score was -0.418 ± 1.1.

Take LLFSSSSLPIGTGGYDLTAG: the amyloid nucleation score is -0.408 ± 1.1.

The substance LLFTGNLGFTVSRSLSRRDR gave an amyloid nucleation score of 6.945 ± 0.069.

On to LLGISLLSLWTFGYLSEIVV, for which the amyloid nucleation score worked out at 0 ± 0.8.

In the case of LLHLQYHLFMLCTVVNPHLL, the amyloid nucleation score was -0.628 ± 0.54.

With LLIFNGLYGWAIGDGLPSSW, the amyloid nucleation score came out at 5.09 ± 0.051.

As for LLKARLLRSHLWVG, the amyloid nucleation score turned out to be 0.057 ± 0.43.

LLKLCRRIKDATFDSLPGCA: the amyloid nucleation score is 0.93 ± 0.31.

In turn, LLLCGNSRGQDEASSIVFTM registered an amyloid nucleation score of 0.726 ± 0.66.

Substance LLLHWRSWMRKCHVITCWSS had an amyloid nucleation score of 0.436 ± 0.35.

Regarding LLLPLFII, the amyloid nucleation score entry was “inactive”.

Take LLNSCSTVESWCNLGEMDKY: the amyloid nucleation score is 0.122 ± 1.1.

Consider LLPSLWV, for which the amyloid nucleation score was -0.437 ± 0.63.

For LLQKDEVRE, the amyloid nucleation score is -0.505 ± 0.3.

With LLRRGVDIWVEHFRE, the amyloid nucleation score was -0.613 ± 0.64.

As for LLRSEVGDLILPCVLERCRP, the amyloid nucleation score was 1.13 ± 0.36.

With LLSIYVSSWKLRGSAPG, the amyloid nucleation score is -0.337 ± 0.63.

LLTRLKGGPPARAPHSTSGL had an amyloid nucleation score of 1.91 ± 0.13.

LLVFNLIYPSVRKGFFIIYA: the amyloid nucleation score entry is “inactive”.

LLYQKKDEWLGASYSLQKLS: the amyloid nucleation score was -0.686 ± 0.37.

Consider LLYQLRNMVILEHFMMIDFM, for which the amyloid nucleation score entry was “inactive”.

LLYTSWLV came in with an amyloid nucleation score of 0.272 ± 0.41.

LMFCIENLAVMESELMGSCR showed an amyloid nucleation score of 0.464 ± 0.62.

LMGLQMSLPWSNEIVRVIPD: the amyloid nucleation score was -0.663 ± 0.49.

For LMHFGMKEEDYWKPCSICIS, the amyloid nucleation score result was “inactive”.

LMLGSWQDKMPSLLWLDLCV yielded an amyloid nucleation score of 0.86 ± 0.52.

Substance LMLIVQDPCLSEINFKLDSG showed an amyloid nucleation score of 4.59 ± 0.11.

Turning to LMLRGLEEARAPRCESWPSW, the amyloid nucleation score was determined as 1.21 ± 0.34.

Regarding LMSFGDLCIHLGFGSCFCLM, the amyloid nucleation score was -0.631 ± 0.39.

For the substance LMSKKGNGIGLEQPLLSSDT, the amyloid nucleation score was -0.778 ± 1.1.

Consider LNDSLTIACSTNTANSWRNL, for which the amyloid nucleation score result is “inactive”.

For LNDWNFLVMVHISIVIRILF, the amyloid nucleation score result was “inactive”.

Substance LNGCGVLRPVR displayed an amyloid nucleation score of 5.89 ± 0.067.

For the substance LNIFI, the amyloid nucleation score was determined as 2.96 ± 0.062.

For the substance LNKNYWGL, the amyloid nucleation score was -0.921 ± 0.39.

Take LNLQSLTSHTVKGL: the amyloid nucleation score turned out to be 0.147 ± 0.54.

Turning to LNMMFYYLRFRMHFRWMDC, the amyloid nucleation score was -0.79 ± 0.38.

With LNQSDLLADFLVLI, the amyloid nucleation score is 0.474 ± 0.31.

In the case of LNSRS, the amyloid nucleation score was -0.436 ± 0.76.

On to LNSSLLFHNLMVHH, for which the amyloid nucleation score result is “inactive”.

Consider LNYMLSAPYFPYESEWSSKG, for which the amyloid nucleation score is -0.59 ± 1.1.

As for LNYNYTQDR, the amyloid nucleation score was -0.751 ± 1.1.

Substance LPGCTTRLHVNLIGALECCK registered an amyloid nucleation score of 0.077 ± 0.35.

In the case of LPIDVSNVGTFVEWIFFAIR, the amyloid nucleation score is -1.5 ± 0.54.

LPRMGSEWFVCWLCSCVATW returned an amyloid nucleation score of 0.718 ± 0.57.

LPTWYVLVPLMDYIYYLFKE: the amyloid nucleation score is -0.536 ± 1.

For LQCRLIRVMYVMHCDVWVV, the amyloid nucleation score was -0.087 ± 0.24.

With LQRRCLINKNTGTPRLSN, the amyloid nucleation score is -0.358 ± 1.

Substance LQTQFTAVC displayed an amyloid nucleation score of 0.27 ± 0.22.

As for LQVRSDSMNGFNW, the amyloid nucleation score is -0.61 ± 1.1.

Regarding LRAVWATVIVSVAMSVSCPK, the amyloid nucleation score was found to be 5.07 ± 0.07.

Consider LRAWLSSLAHTKRRCELGTP, for which the amyloid nucleation score was determined as 0.575 ± 0.3.

Regarding LRCHDGVKLSKSVCECCMYM, the amyloid nucleation score is 2.37 ± 0.19.

LRCSESCNLMNKYGWRRNQA yielded an amyloid nucleation score of 3.65 ± 0.081.

With LRDCFVEYEGSSSMYYLRQW, the amyloid nucleation score was -0.105 ± 0.4.

On to LRDTPLMGWYCFRSHLVTVS, for which the amyloid nucleation score worked out at 1.3 ± 0.51.

With LRFCSSSVISGLQFSSRVVE, the amyloid nucleation score is -0.029 ± 1.1.

On to LRFFHQSL, for which the amyloid nucleation score result is “inactive”.

For the substance LRFPRGLNGNDPGSIAS, the amyloid nucleation score was -0.085 ± 0.79.

Consider LRGLSAPACKYQWQDEMYD, for which the amyloid nucleation score was -0.628 ± 0.45.

LRGLVMRCAFIVKGLGLCEG had an amyloid nucleation score of 0.979 ± 0.22.

Consider LRGQEKLWGVACSLVLIVTA, for which the amyloid nucleation score worked out at 1.39 ± 0.15.

As to LRGVLLSETRCAKEGLPTLS, the amyloid nucleation score amounted to 0.365 ± 0.36.

As for LRKNSLTCSSKKPEKAVTFC, the amyloid nucleation score is -1.42 ± 1.

As for LRKVLW, the amyloid nucleation score was -0.657 ± 0.79.

For LRMNYIAAVHSCAVLHHFNA, the amyloid nucleation score amounted to 3.13 ± 0.073.

On to LRPLL, for which the amyloid nucleation score is -0.912 ± 0.93.

On to LRRDL, for which the amyloid nucleation score is -0.408 ± 0.63.

LRRTSVVIGRVRSSRLCGLR returned an amyloid nucleation score of 9.336 ± 0.054.

LRVTGNVGLSFGAKGLARPD yielded an amyloid nucleation score of 3.33 ± 0.12.

LRWRSCGNELDFKLNGLDFE had an amyloid nucleation score of 0.586 ± 0.74.
